The text below walks through data of patent publication US20190248902A1 (published 2019).

In assay [1] the target is T1, human ASGR-1 mutant construct H203 (human, UniProt P07306 1-291).
T1 construct: Arg/Glu scanning: non-arginine residues were changed to arginine; Transiently expressed on CHO-S cells
T1 sequence: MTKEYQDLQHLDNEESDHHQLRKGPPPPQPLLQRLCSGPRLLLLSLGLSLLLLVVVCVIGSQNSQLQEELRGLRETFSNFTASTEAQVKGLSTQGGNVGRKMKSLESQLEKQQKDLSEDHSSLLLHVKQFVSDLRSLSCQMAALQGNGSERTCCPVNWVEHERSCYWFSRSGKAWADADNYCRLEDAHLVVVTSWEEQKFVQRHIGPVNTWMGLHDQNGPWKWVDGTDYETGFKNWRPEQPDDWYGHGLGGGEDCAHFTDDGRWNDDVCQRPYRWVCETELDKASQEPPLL
Put plainly: FACS ratio: H203 normalized value / wt normalized value. On the procedure: (§1) The ability of human ASGR-1-specific, ligand competing antibodies to bind to the mutant hASGR-1 proteins was assessed by FACS as described above.
(§2) Antibodies were tested for binding to the individual mutant and wild type ASGR-1 constructs using normalized antibody concentrations (5 ug/ml). CHO—S cells transiently expressing the appropriate mutated or non-mutated antigen of interest were mixed with antibody sample or controls, incubated for 1 hour at 4° C., and then washed twice. Cells with bound antibody were then incubated with Alexa Fluor® 647 IgG Fc fragment-specific detection antibody and 7-AAD viability stain for 15 minutes at 4° C., washed once and resuspended in FACS buffer. Samples were analyzed using a BD Accuri™ Flow Cytometer and an Intellicyt HyperCyt Autosampler. As a negative control, supernatants and controls were also screened against CHO—S cells transfected with empty parental vector (referred to as mock). […] Because mutant hASGR-1 expression levels varied relative to each other, sample binding data for each construct was normalized for expression by dividing the binding data from an antibody not affected by the mutations (e.g., 65C12) by the binding values of each test antibody on a given mutant construct. Also, because the antibody binding affinities varied amongst the samples, the expression corrected data (above) was further normalized by comparing test antibody binding on each mutant construct to wild type hASGR-1. Identification of specific mutations that affected test antibody binding was performed by an interquartile range (IQR) analysis to determine statistical outliers. A mutation was identified as a “hit” if the calculated values were >3× the IQR (above the 3rd quartile/upper fence) for a given mutant construct. Although IQR analysis was used here to determine signifance and identify hits, one skilled in the art will recognize that a number of methods could be employed in order to normalize the data (eg. using epitope-tagged constructs or other ASGR-1-binding antibodies directed against non-CBD epitopes).

For assay [2], the target named is T1, human ASGR-1 mutant construct H203. Put plainly: FACS, transfected CHO-S cells, mAb 5 ug/ml. The protocol:
as §1, §2
In general terms: Flow cytometry measures light scatter and fluorescence of single cells or particles in a stream.

Assay [3] addresses T2, human ASGR-1 (wild type) (human, UniProt P07306 1-291).
T2 construct: also called wt ASGR1; huASGR-1
T2 sequence: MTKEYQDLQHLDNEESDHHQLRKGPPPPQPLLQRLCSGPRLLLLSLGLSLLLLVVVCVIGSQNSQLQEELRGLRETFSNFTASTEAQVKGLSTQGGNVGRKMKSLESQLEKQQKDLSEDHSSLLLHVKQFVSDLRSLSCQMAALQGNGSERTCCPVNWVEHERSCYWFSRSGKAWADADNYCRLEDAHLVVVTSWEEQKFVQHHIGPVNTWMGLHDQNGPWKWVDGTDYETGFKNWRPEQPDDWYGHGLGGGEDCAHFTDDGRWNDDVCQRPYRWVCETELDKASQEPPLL
Put plainly: FACS, transfected CHO-S cells, mAb 5 ug/ml. On the procedure: as §1, §2

Assay [4] has as its target T1, human ASGR-1 mutant construct H203. Put plainly: FACS ratio: 65C12 geomean / this mAb geomean. The protocol:
(§3) Mutant hASGR-1 variants were constructed such that non-arginine residues were changed to arginine and where wild type arginine residues were mutated to glutamic acid. Each mutant hASGR-1 sequence was then cloned into a mammalian expression vector and used to transiently transfect CHOs cells. The ability of human ASGR-1-specific, ligand competing antibodies to bind to the mutant hASGR-1 proteins was assessed by FACS as described above.
(§4) Antibodies were tested for binding to the individual mutant and wild type ASGR-1 constructs using normalized antibody concentrations (5 ug/ml). CHO—S cells transiently expressing the appropriate mutated or non-mutated antigen of interest were mixed with antibody sample or controls, incubated for 1 hour at 4° C., and then washed twice. Cells with bound antibody were then incubated with Alexa Fluor® 647 IgG Fc fragment-specific detection antibody and 7-AAD viability stain for 15 minutes at 4° C., washed once and resuspended in FACS buffer. Samples were analyzed using a BD Accuri™ Flow Cytometer and an Intellicyt HyperCyt Autosampler. As a negative control, supernatants and controls were also screened against CHO—S cells transfected with empty parental vector (referred to as mock). […] Because mutant hASGR-1 expression levels varied relative to each other, sample binding data for each construct was normalized for expression by dividing the binding data from an antibody not affected by the mutations (e.g., 65C12) by the binding values of each test antibody on a given mutant construct. Also, because the antibody binding affinities varied amongst the samples, the expression corrected data (above) was further normalized by comparing test antibody binding on each mutant construct to wild type hASGR-1. Identification of specific mutations that affected test antibody binding was performed by an interquartile range (IQR) analysis to determine statistical outliers. A mutation was identified as a “hit” if the calculated values were >3× the IQR (above the 3rd quartile/upper fence) for a given mutant construct.

The target of assay [5] is T2, human ASGR-1 (wild type). Nature of the assay: FACS ratio: 65C12 geomean / this mAb geomean. On the procedure: as §3, §4

B1: 60E8 (antibody, V domains shown)
VH: QVQLQESGPGLVRPSATLSLTCTVSGGSISRSSYYWGWIRQPPGKGLEWIGSIYYSGSASYNPSLKSRVTISVDTSENQFSLRLSSVTAADTAVYYCARLDSGWSFDYWGQGTLVTVSS
VL: DIQMTQSPSSLSASVGDRVTFTCRASQGIRNDLGWFQQKPGKAPKRLIYAASSLQSGVPSRFSGSGSGTEFTLTISSLQPEDFATYYCLQHSSYPLTFGGGTKVEIK
notes: mAb
Take B1: in assay [1], the “Normalization to wt ASGR1 Binding” value was 11.7. Also, the “FACS Binding Geomean” value was found to be 1520 in assay [2] and 38700 in the assay with human ASGR-1 (wild type) [3]. The “Expression Normalization to mAb 65C12” value came out at 17 in assay [4] and 1.45 with human ASGR-1 (wild type) [5].

B2: 65E9 (antibody, V domains shown)
VH: not shown
VL: SYELTQPPSVSVSPGQTASITCSGDKLGNKYDYWYQQKPGQSPVLVIYQDRKRPSGIPERFSGSNSGNTATLTISGTQAMDEADYYCQAWDNSTVVFGGGTKLTVL
notes: mAb
Turning to B2, the “Normalization to wt ASGR1 Binding” value in assay [1] is 9.25. Besides, the figures for the “FACS Binding Geomean” value (in assay [2]; with human ASGR-1 (wild type) [3]) were 1470 and 29600, respectively. Also, the figures for the “Expression Normalization to mAb 65C12” value (in assay [4]; with human ASGR-1 (wild type) [5]) were 17.5 and 1.89, respectively.

B3: 60D2 (antibody, V domains shown)
VH: EVQLVESGGGLVQPGGSLRLSCGASGFTFSSYSMNWVRQAPGKGLEWVSYISESSNIIYYTDSVKGRFTISRDNAMNSLYLQMNSLRDEDTAVYYCARADTPMVLYFYGMDVWGQGTTVTVSS
VL: SYELTQPPSVSVSPGQTASITCSGNKLGDKYASWYQQRPGQSPVLVIYQDNKRPSGIPERFSGSNSGNTATLTISGTQTMDEADYYCQAWDNNTVVFGGGTKLTVL
notes: mAb
Regarding B3, the “Normalization to wt ASGR1 Binding” value in assay [1] is 9.95. Further, the “FACS Binding Geomean” value in assay [2] worked out at 1370; in the assay with human ASGR-1 (wild type) [3], 29600. The “Expression Normalization to mAb 65C12” value in assay [4] came out at 18.8; with human ASGR-1 (wild type) [5], 1.89.

B4: 151B9 (antibody, V domains shown)
VH: EVQLLESGGGLVQPGGSLRLSCAASGFTFSSYAMSWVRQAPGKGLEWVSVISGGGSSTYYADSVKGRFTISRDNSKNTLYLQMNSLRAEDTAVYYCAKWRGNPTDYGMDVWGQGTTVTVSS
VL: SYELTQPPSVSVSPGQTASIACSGDNLGDKYASWYQQKPGQSPVLVIYQDSKRPSGIPERFSGSNSGNTATLTISGIQAMDEADYYCQAWDSSTVVFGGGTKLTVL
notes: mAb
Regarding B4, in assay [1], the “Normalization to wt ASGR1 Binding” value stood at 1.11. Moreover, the “FACS Binding Geomean” value in assay [2] turned out to be 9740; with human ASGR-1 (wild type) [3] it was 23500. The “Expression Normalization to mAb 65C12” value in assay [4] amounted to 2.65; in the assay with human ASGR-1 (wild type) [5], 2.38.

B5: 59F2 (antibody, V domains shown)
VH: EVQLVESGGGLVQPGGSLRLSCGASGFTFSSYSMNWVRQAPGKGLEWVSYISGSSNIIYYTDSVKGRFTISRDNAKNSLYLQMNSLRDEDTAVYYCARADTPMVLYFYGMDVWGQGTTVTVSS
VL: SYELTQPPSVSVSPGQTASITCSGDKLGDKYASWYQQRPGQSPVLVIYQDNKRPSGIPERFSGSNSGNTATLTISGTQAMDEADYYCQAWDNNTVVFGGGTKLTVL
notes: mAb
For B5, the “Normalization to wt ASGR1 Binding” value in assay [1] stood at 9.53. For the same molecule, the figures for the “FACS Binding Geomean” value (in assay [2]; with human ASGR-1 (wild type) [3]) were 1350 and 27900, respectively. The “Expression Normalization to mAb 65C12” value in assay [4] came to 19.1; with human ASGR-1 (wild type) [5], 2.01.

B6: 149D11 (antibody, V domains shown)
VH: EVQLLESGGGLVQPGGSLRLSCAASGFTFSSYAMSWVRQAPGKGLEWVSAISGRGGNTFYADSVKGRFTISRDNSKNTLYRQMNSLRAEDTAVYYCAKKDYDYVWGSPYFDYWGQGTLVTVSS
VL: DIQMTQSPASVSASVGDRVTITCRASQNISNWLTWYQQKPGKAPKLLIYAASSLQSGVPSRFSGSGSGTDFTLSISSLQPEDFATYYCQQTDSFPFTFGPGTKVDVK
notes: mAb
With B6, the “Normalization to wt ASGR1 Binding” value in assay [1] was determined as 1.22. Also, the “FACS Binding Geomean” value stood at 8870 in assay [2] and 23600 with human ASGR-1 (wild type) [3]. In addition, the entries for the “Expression Normalization to mAb 65C12” value (in assay [4]; in the assay with human ASGR-1 (wild type) [5]) were 2.91 and 2.38, respectively.

B7: 52H2 (antibody, V domains shown)
VH: EVQLLESGGGLVQPGGSLRLSCAASGFTFSRNAMSWVRQAPGMGLEWVSAISGRGGNTFYADSVKGRFTVSRDNSKNTLFLQMNSLRAEDTAVYYCAKNGREQWLDYWGQGTLVTVSS
VL: DIQMTQSPSSVSASVGDRVTITCRASQNITNWLAWFQQKPGRAPKLLIYTTSSLQSGVPSRFSGSGSGTDFTLTISSLQPEDFATYCCQQTNSFPWTFGHGTKVEVK
notes: mAb
In the case of B7, the “Normalization to wt ASGR1 Binding” value in assay [1] turned out to be 1.18. The “FACS Binding Geomean” value is 18600 in assay [2] and 48000 in the assay with human ASGR-1 (wild type) [3]. Besides, the results for the “Expression Normalization to mAb 65C12” value (in assay [4]; in the assay with human ASGR-1 (wild type) [5]) were 1.38 and 1.17, respectively.

B8: 72F5 (antibody, V domains shown)
VH: EVQLLESGGGLVQPGGSLRLSCAASGFTFSSYAMIWVRQAPGKGLEWVSTISGSGGYTYSADSVKGRFTISRDNSKNTLYLQMNSLRAEDTAVYYCARRIAVTGTEWYDPWGQGTLVTVSS
VL: DIQMTQSPSSLSASVGDRVIIPCRASQNISSYLNWYQQKPGKAPKLLIYAASSLQSGVPSRFSGSGSGTDFTLTISSLQPEDFATYSCQQTYSTPTFGQGTRLDIN
notes: mAb
On to B8, for which the “Normalization to wt ASGR1 Binding” value in assay [1] stood at 1.22. In addition, the “FACS Binding Geomean” value in assay [2] was 10500; with human ASGR-1 (wild type) [3] it was 28000. Moreover, the “Expression Normalization to mAb 65C12” value in assay [4] turned out to be 2.45; in the assay with human ASGR-1 (wild type) [5], 2.

B9: 50G9 (antibody, V domains shown)
VH: QVQLVESGGGVVQPGRSLRLSCAASGFIFSSYGMHWVRQAPGKGLEWVAVISQDGIIRYYADSVKGRFTISRDNSKNTLYLQMNSLRAEDTAVYYCARDVKQWLVRTYGMDVWGQGTTVTVSS
VL: SYELTQPPSVSVSPGQTASITCSGDKLGDKYACWYQQKPGQSPVLVIYQDSKRPSGIPERFSGSNSGNTATLTISGTQARDEAEYYCQARNSRRGVFGGGTRLTVL
notes: mAb
For B9, the “Normalization to wt ASGR1 Binding” value in assay [1] turned out to be 11.4. Further, the “FACS Binding Geomean” value amounted to 1510 in assay [2] and 37300 with human ASGR-1 (wild type) [3]. The “Expression Normalization to mAb 65C12” value in assay [4] was found to be 17.1; with human ASGR-1 (wild type) [5] it was 1.5.
